2 molecules from paper PMC9465349, “G protein–coupled receptor kinase phosphorylation of distal C-tail sites specifies βarrestin1-mediated signaling by chemokine receptor CXCR4” (The Journal of Biological Chemistry, 2022) can be followed below.

B1: βarrestin1-GFP10 (natural protein, UniProt P49407 1-418, looked up)
chain: MGDKGTRVFKKASPNGKLTVYLGKRDFVDHIDLVDPVDGVVLVDPEYLKERRVYVTLTCAFRYGREDLDVLGLTFRKDLFVANVQSFPPAPEDKKPLTRLQERLIKKLGEHAYPFTFEIPPNLPCSVTLQPGPEDTGKACGVDYEVKAFCAENLEEKIHKRNSVRLVIRKVQYAPERPGPQPTAETTRQFLMSDKPLHLEASLDKEIYYHGEPISVNVHVTNNTNKTVKKIKISVRQYADICLFNTAQYKCPVAMEEADDTVAPSSTFCKVYTLTPFLANNREKRGLALDGKLKHEDTNLASSTLLREGANREILGIIVSYKVKVKLVVSRGGLLGDLASSDVAVELPFTLMHPKPKEEPPHREVPENETPVDTNLIELDTNDDDIVFEDFARQRLKGMKDDKEEEEDGTGSPQLNNR
notes: βarrestin1 (βarr1); plasmid a gift from Michel Bouvier; Gift plasmid; also called βarr1-GFP; βarr1-GFP^10; source: HEK293, transiently transfected (PEI), in live cells
B2: STAM1 (signal-transducing adaptor molecule 1) tagged at the N terminus with Rluc8 (natural protein, UniProt Q92783 1-540, looked up)
chain: MPLFATNPFDQDVEKATSEMNTAEDWGLILDICDKVGQSRTGPKDCLRSIMRRVNHKDPHVAMQALTLLGACVSNCGKIFHLEVCSRDFASEVSNVLNKGHPKVCEKLKALMVEWTDEFKNDPQLSLISAMIKNLKEQGVTFPAIGSQAAEQAKASPALVAKDPGTVANKKEEEDLAKAIELSLKEQRQQSTTLSTLYPSTSSLLTNHQHEGRKVRAIYDFEAAEDNELTFKAGEIITVLDDSDPNWWKGETHQGIGLFPSNFVTADLTAEPEMIKTEKKTVQFSDDVQVETIEPEPEPAFIDEDKMDQLLQMLQSTDPSDDQPDLPELLHLEAMCHQMGPLIDEKLEDIDRKHSELSELNVKVMEALSLYTKLMNEDPMYSMYAKLQNQPYYMQSSGVSGSQVYAGPPPSGAYLVAGNAQMSHLQSYSLPPEQLSSLSQAVVPPSANPALPSQQTQAAYPNTMVSSVQGNTYPSQAPVYSPPPAATAAAATADVTLYQNAGPNMPQVPNYNLTSSTLPQPGGSQQPPQPQQPYSQKALL
notes: STAM1 (signal-transducing adaptor molecule 1); the plasmid holds 'the STAM1-coding region' in pcDNA3; New plasmid; Rluc8 fragment from pTRE-Tight-Rluc8 (Addgene 79844); also called Rluc8-STAM1; RLuc8-STAM1; source: HEK293, transiently transfected (PEI), in live cells; not shown: Rluc8, N-terminal, kept

What all share (conditions): partners not purified
The target in test [1] is T1, CXCR4-Rluc3 (UniProt P61073 1-352).
T1 construct: chemokine receptor CXCR4; plasmid a gift from Nikolaus Heveker; Gift plasmid; also called Rluc3-tagged CXCR4; source: HEK293, transiently transfected (PEI), in live cells
T1 sequence (P61073 whole entry): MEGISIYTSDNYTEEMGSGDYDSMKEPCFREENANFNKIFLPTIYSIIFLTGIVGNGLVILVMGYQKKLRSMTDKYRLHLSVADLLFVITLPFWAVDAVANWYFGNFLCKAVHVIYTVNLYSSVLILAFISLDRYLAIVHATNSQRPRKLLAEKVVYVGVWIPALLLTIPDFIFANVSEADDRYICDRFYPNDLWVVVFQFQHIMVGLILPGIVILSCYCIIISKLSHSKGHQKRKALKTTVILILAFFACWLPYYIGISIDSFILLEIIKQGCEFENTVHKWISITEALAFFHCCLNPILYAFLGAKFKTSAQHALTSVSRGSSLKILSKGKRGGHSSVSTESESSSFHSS
The experiment in a line: FRET or BRET; as a13 for CXCR4-Rluc3 and βarr1-GFP, but in the presence of 30 μM GRK2/3 inhibitor compound 101. For orientation: In BRET a luciferase serves as donor, and the signal depends on an acceptor being close.

Test [2] addresses T2, NTS1-Rluc8 (neurotensin receptor 1) (UniProt P30989 1-418).
T2 construct: neurotensin receptor 1 (NTS1); 'the NTS1-coding region' amplified by PCR from the NTS1-Tango plasmid; New plasmid; source: HEK293, transiently transfected (PEI), in live cells
The experiment in a line: FRET or BRET; BRET2 in live HEK293 cells coexpressing a GPCR tagged with Rluc (CXCR4-Rluc3, or GPCR-Rluc8; donor) and βarr1-GFP10 (acceptor); increasing concentrations of the receptor's agonist at 37 °C; vehicle or 1 μM Gö6983 (little effect, CXCR4).

Test [3] deals with T1, CXCR4-Rluc3. The description is as above.
Test [4] addresses B1. The experiment in a line: FRET or BRET; BRET2 in live HEK293 cells coexpressing FLAG-AT1a, Rluc8-STAM1 and βarr1-GFP; increasing concentrations of angiotensin II, 10 min, 37 °C.
In test [5] the target is B1. Put plainly: FRET or BRET; BRET2 in live HEK293 cells coexpressing FLAG-NTS1, Rluc8-STAM1 and βarr1-GFP; increasing concentrations of neurotensin, 10 min, 37 °C.

T2 sequence (P30989 whole entry): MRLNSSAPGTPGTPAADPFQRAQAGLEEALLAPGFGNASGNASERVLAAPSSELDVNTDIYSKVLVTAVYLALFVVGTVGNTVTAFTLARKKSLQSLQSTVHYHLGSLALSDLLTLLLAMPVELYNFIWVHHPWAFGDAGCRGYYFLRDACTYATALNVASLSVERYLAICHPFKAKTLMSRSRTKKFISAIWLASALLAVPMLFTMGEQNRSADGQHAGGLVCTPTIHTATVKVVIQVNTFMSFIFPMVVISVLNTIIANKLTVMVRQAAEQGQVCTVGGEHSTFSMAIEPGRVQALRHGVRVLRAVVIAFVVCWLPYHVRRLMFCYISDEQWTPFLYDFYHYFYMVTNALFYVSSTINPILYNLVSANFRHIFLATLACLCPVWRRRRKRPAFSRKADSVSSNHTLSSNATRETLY

For B1, the “EC50 of the agonist CXCL12 for the BRET response (with GRK2/3 inhibitor compound 101)” value with CXCR4-Rluc3 [1] was 7.79 nM. Besides, the “potency (EC50) of the agonist neurotensin for the BRET response” value in test [2] is 0.13 nM. In addition, in the test with CXCR4-Rluc3 [3], the “EC50 of the agonist CXCL12 for the BRET response (vehicle)” value stood at 0.3 nM.

On to B2, for which the “potency (EC50) of the agonist angiotensin II for the BRET response” value in the test with βarrestin1-GFP10 [4] was 70 nM. For the same molecule, the “potency (EC50) of the agonist neurotensin for the BRET response” value with βarrestin1-GFP10 [5] amounted to 0.22 nM.
